Results from patent US7541141B2, “Method of using estrogen-related receptor alpha (ERRα) status to determine prognosis, treatment strategy and predisposition to breast cancer, and method of using ERRα as a therapeutic target for the treatment of breast cancer” (Wisconsin Alumni Research Foundation, priority 1997, dated 2009).

Assays:
[1] = biological target: T1, ERRα (Homo sapiens, UniProt P11474); details: cited from earlier work
T1 sequence (P11474 1-423): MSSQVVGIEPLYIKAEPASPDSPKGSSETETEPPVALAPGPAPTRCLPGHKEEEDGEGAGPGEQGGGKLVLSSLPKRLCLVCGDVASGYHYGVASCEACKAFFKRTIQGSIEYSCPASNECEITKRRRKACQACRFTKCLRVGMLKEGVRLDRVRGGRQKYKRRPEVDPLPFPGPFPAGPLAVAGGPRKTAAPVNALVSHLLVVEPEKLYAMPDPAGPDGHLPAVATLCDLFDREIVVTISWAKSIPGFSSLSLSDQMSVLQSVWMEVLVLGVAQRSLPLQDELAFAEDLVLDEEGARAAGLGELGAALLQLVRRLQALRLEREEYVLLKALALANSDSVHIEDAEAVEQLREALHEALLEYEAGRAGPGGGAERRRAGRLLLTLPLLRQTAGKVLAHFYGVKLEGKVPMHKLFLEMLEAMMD

[2] = biological target: ERRγ (Homo sapiens, UniProt P62508); details: cell-based assays; cited from earlier work
ERRγ, sequence (P62508 whole entry): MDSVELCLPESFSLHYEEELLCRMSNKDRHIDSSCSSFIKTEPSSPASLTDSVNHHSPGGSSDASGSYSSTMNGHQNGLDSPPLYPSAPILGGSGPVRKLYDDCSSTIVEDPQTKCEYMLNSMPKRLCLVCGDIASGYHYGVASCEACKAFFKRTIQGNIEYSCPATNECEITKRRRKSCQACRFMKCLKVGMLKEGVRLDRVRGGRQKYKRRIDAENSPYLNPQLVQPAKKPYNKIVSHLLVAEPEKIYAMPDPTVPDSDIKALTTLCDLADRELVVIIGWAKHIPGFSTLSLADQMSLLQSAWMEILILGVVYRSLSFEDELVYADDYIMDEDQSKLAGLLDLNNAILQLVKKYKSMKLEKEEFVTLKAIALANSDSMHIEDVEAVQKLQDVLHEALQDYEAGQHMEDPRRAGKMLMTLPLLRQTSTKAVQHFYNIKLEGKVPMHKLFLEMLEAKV

[3] = test system: ERE-dependent transcription in HeLa cells; experiment: p3xERE-TK-luc luciferase reporter, transient transfection; format: cell-based, human; details: whole FBS
Description: Transient Transfections and Luciferase Assays: To assess the role ERRα plays in regulating transcription of an ERE-containing promoter, MCF-7 or HeLa cells grown in 12-well tissue culture plates were co-transfected in parallel with 0.5 μg of pTK-luc versus p3xERE-TK-luc along with the indicated amounts of the empty cloning vector pcDNA3.1, the ERRα1 expression plasmid pcDNA3.1-hERRα1, or mutant variants thereof. Transfections were performed with the aid of the TransIT LT1 transfection reagent (PanVera, Madison, Wis.) as previously described (35). To examine the effects of ER ligands, […] (E2) (Sigma) or the pure anti-estrogen ICI-182,780 (Astra Zeneca, London, UK) dissolved in ethanol and diluted in medium to obtain the indicated concentrations. Cells were harvested 48 h post-transfection, and lysates were assayed for luciferase activity normalized to protein concentration as previously described (36).
ERRα Activates Transcription in HeLa Cells: Our finding that ERRα represses transcription from an ERE-controlled promoter was somewhat surprising since most reports in the literature conclude that ERR family members function as transcriptional activators of ERE-dependent transcription (17-31). […]

[4] = test system: ERE-dependent transcription in MCF-7 cells; experiment: as above; format: cell-based, human
Description: (§1) Transient Transfections and Luciferase Assays: To assess the role ERRα plays in regulating transcription of an ERE-containing promoter, MCF-7 or HeLa cells grown in 12-well tissue culture plates were co-transfected in parallel with 0.5 μg of pTK-luc versus p3xERE-TK-luc along with the indicated amounts of the empty cloning vector pcDNA3.1, the ERRα1 expression plasmid pcDNA3.1-hERRα1, or mutant variants thereof. Transfections were performed with the aid of the TransIT LT1 transfection reagent (PanVera, Madison, Wis.) as previously described (35). To examine the effects of ER ligands, cells were maintained in stripped medium for 48 h before transfection and the addition of 17β-estradiol (E2) (Sigma) or the pure anti-estrogen ICI-182,780 (Astra Zeneca, London, UK) dissolved in ethanol and diluted in medium to obtain the indicated concentrations. Cells were harvested 48 h post-transfection, and lysates were assayed for luciferase activity normalized to protein concentration as previously described (36).
ERRα Represses Transcription in MCF-7 Cells: Because ERRα can interfere with the binding of ERα to this ERE, might it affect estrogen-responsive transcription? To answer this question, we co-transfected ERα-positive mammary MCF-7 cells in parallel with p3xERE-TK-luc, a reporter plasmid containing three tandem copies of this ERE (FIG. 14A) or the ERE-negative control plasmid, pTK-luc, together with 0.12 or 0.25 μg of the ERRα1 expression plasmid, pcDNA3.1-hERRα1, or the empty parental expression plasmid, pcDNA3.1. After incubation for 48 h in medium containing whole FBS, the cells were harvested and assayed for luciferase activity. The presence of the EREs conferred an about 150-fold increase in transcriptional activity above the level observed in the cells transfected with the ERE-negative reporter plasmid (FIG. 14B). […] Thus, ERRα inhibits the estrogen-responsive activation of transcription from this ERE-containing promoter in this ER-positive MCF-7 cell line.
ERRα Modulates Estrogen-responsiveness in MCF-7 Cells: To directly examine the effect of ERRα on the response to estrogen, MCF-7 cells were cultured in medium containing estrogen-free charcoal-stripped FBS and cotransfected as described above but in the absence or presence of E2. […] Once again, overexpression of ERRα repressed ERE-dependent transcription approximately 3-fold while having little if any effect on transcription of the control reporter (FIG. 15A).

[5] = test system: ERE-independent TK-luc transcription in MCF-7 cells; experiment: pTK-luc ERE-negative control luciferase reporter, transient transfection; format: cell-based, human; details: whole FBS, 48 h
Description: as §1

[6] = 0.12 or 0.25 μg expression plasmid, whole FBS, 48 h

ClC1=C(Cl)C2(Cl)C3C(Cl)C(Cl)CC3C1(Cl)C2(Cl)Cl (centres unmarked) [chlordane]
Effect on ERRα activity (literature) [1]: decrease the activity of ERRα

4-hydroxytamoxifen
Effect on ERRγ (literature) [2]: selectively antagonizes ERRγ

C[C@]12CC[C@@H]3c4ccc(O)cc4C[C@@H](CCCCCCCCC[S+]([O-])CCCC(F)(F)C(F)(F)F)[C@H]3[C@@H]1CC[C@@H]2O (some centres unmarked) [ICI-182,780, reference compound]
Effect of anti-estrogen on ERE-dependent activity [3]: completely insensitive
Effect of anti-estrogen on ERE-dependent activity ([4]; 1×10^−6 M, charcoal-stripped FBS plus 1×10^−8 M E2): extremely sensitive
Effect of anti-estrogen on E2 induction of ERE reporter ([4]; 1×10^−6 M, charcoal-stripped FBS plus 1×10^−10 M E2): completely eliminated
Effect of anti-estrogen on ERE-dependent activity ([4]; 1×10^−6 M, charcoal-stripped FBS, no exogenous E2): largely ablated
Effect of anti-estrogen on ERE-dependent activity ([4]; 1×10^−6 M, medium with whole FBS): extremely sensitive

CC1(C)C(C(Cl)Cl)C2(Cl)C(Cl)C(Cl)C1(Cl)C2(Cl)Cl (centres unmarked) [toxaphene]
Effect on ERRα activity (literature) [1]: decrease the activity of ERRα

B1: ERRα: wild-type human ERRα1 overexpressed from plasmid pcDNA3.1-hERRα1 (protein)
chain: MSSQVVGIEPLYIKAEPASPDSPKGSSETETEPPVALAPGPAPTRCLPGHKEEEDGEGAGPGEQGGGKLVLSSLPKRLCLVCGDVASGYHYGVASCEACKAFFKRTIQGSIEYSCPASNECEITKRRRKACQACRFTKCLRVGMLKEGVRLDRVRGGRQKYKRRPEVDPLPFPGPFPAGPLAVAGGPRKTAAPVNALVSHLLVVEPEKLYAMPDPAGPDGHLPAVATLCDLFDREIVVTISWAKSIPGFSSLSLSDQMSVLQSVWMEVLVLGVAQRSLPLQDELAFAEDLVLDEEGARAAGLGELGAALLQLVRRLQALRLEREEYVLLKALALANSDSVHIEDAEAVEQLREALHEALLEYEAGRAGPGGGAERRRAGRLLLTLPLLRQTAGKVLAHFYGVKLEGKVPMHKLFLEMLEAMMD
Activation of transcription from p3xERE-TK-luc by overexpression ([3]; 48 h): 2.5 fold
Repression of ERE-dependent transcription by overexpression [4, 6]: 3-4 fold
Inhibition of E2-mediated activation of transcription by overexpression ([4]; charcoal-stripped FBS plus 1×10^−8 M E2): no longer inhibited
Inhibition of E2-mediated activation of transcription by overexpression ([4]; charcoal-stripped FBS plus 1×10^−10 M E2): 3-5 fold
Repression of ERE-dependent transcription by overexpression ([4]; charcoal-stripped FBS, no exogenous E2): approximately 3 fold

B2: ERRα1P-box: ERRα1 variant with E97G/A98S/A101V in the P-box, unable to bind DNA (protein)
chain: MSSQVVGIEPLYIKAEPASPDSPKGSSETETEPPVALAPGPAPTRCLPGHKEEEDGEGAGPGEQGGGKLVLSSLPKRLCLVCGDVASGYHYGVASCGSCKVFFKRTIQGSIEYSCPASNECEITKRRRKACQACRFTKCLRVGMLKEGVRLDRVRGGRQKYKRRPEVDPLPFPGPFPAGPLAVAGGPRKTAAPVNALVSHLLVVEPEKLYAMPDPAGPDGHLPAVATLCDLFDREIVVTISWAKSIPGFSSLSLSDQMSVLQSVWMEVLVLGVAQRSLPLQDELAFAEDLVLDEEGARAAGLGELGAALLQLVRRLQALRLEREEYVLLKALALANSDSVHIEDAEAVEQLREALHEALLEYEAGRAGPGGGAERRRAGRLLLTLPLLRQTAGKVLAHFYGVKLEGKVPMHKLFLEMLEAMMD
Induction of ERE-dependent transcription by overexpression ([4]; whole FBS, 48 h): 2-3 fold

B3: ERRα1413A/418A: ERRα1 variant with alanine in place of leucine at amino acids 413 and 418 (NR box) (protein)
chain: MSSQVVGIEPLYIKAEPASPDSPKGSSETETEPPVALAPGPAPTRCLPGHKEEEDGEGAGPGEQGGGKLVLSSLPKRLCLVCGDVASGYHYGVASCEACKAFFKRTIQGSIEYSCPASNECEITKRRRKACQACRFTKCLRVGMLKEGVRLDRVRGGRQKYKRRPEVDPLPFPGPFPAGPLAVAGGPRKTAAPVNALVSHLLVVEPEKLYAMPDPAGPDGHLPAVATLCDLFDREIVVTISWAKSIPGFSSLSLSDQMSVLQSVWMEVLVLGVAQRSLPLQDELAFAEDLVLDEEGARAAGLGELGAALLQLVRRLQALRLEREEYVLLKALALANSDSVHIEDAEAVEQLREALHEALLEYEAGRAGPGGGAERRRAGRLLLTLPLLRQTAGKVLAHFYGVKLEGKVPMHKAFLEMAEAMMD
Up-regulation of ERE-independent TK-luc transcription by overexpression [5]: approximately 2 fold
Repression of ERE-dependent transcription by overexpression [4, 6]: 5-8 fold
Repressive effect on ERE-dependent transcription normalized to the control ([4]; normalized to pTK-luc control): 10-16 fold
